Positions of bridges follow the written chain, without caps; N, C: chain ends. Non-standard residues stand in square brackets, D forms with d. Residues, ends and D or L forms follow the SMILES beside them. *: point of attachment. DOTA = O=C(O)CN1CCN(CC(=O)O)CCN(CC(=O)*)CCN(CC(=O)O)CC1; dPhe(4-NHCONH2) = NC(=O)Nc1ccc(C[C@@H](N)C(=O)O)cc1; Dihydroorotyl(S) = O=C1C[C@@H](C(=O)*)NC(=O)N1; Phe(4-Cl) = N[C@@H](Cc1ccc(Cl)cc1)C(=O)O; Phe(4-NH2) = Nc1ccc(C[C@H](N)C(=O)O)cc1
What was measured:
[1] = human, in vivo; cited from earlier work
[2] = human, in vivo; cited from earlier work; remark: listed apart in the source
[3] = system: human CD34+ HSPC subpopulations; experiment: Cell proliferation (CellTrace Violet) and cell death after radioligand treatment; assay type: cell-based; details: 50 kBq/well, 4 days
Experimental: BMMCs were thawed in 90% IMDM with GlutaMAX, 10% FBS, and 20 µg/ml DNAse. Cells were washed and resuspended in cold FACS buffer for CD34+ isolation using the Miltenyi Biotec CD34 MicroBead Kit (#130-046-702) as per manufacturer instructions. CellTrace™ Violet (CTV, Thermo Scientific, C34557) staining was conducted based on the CD34^+ cell count (0.05 µl CTV/ml/ 1,500,000 cells) to determine the number of divisions undergone by a cell at the time of analysis. Following a 20 min incubation at 37 °C, the cells were centrifuged and resuspended in serum-free medium composed of IMDM with GlutaMAX and 20% BIT9500 (Stem Cell Technologies, 09500) supplemented with three cytokines involved in stem cell maintenance: SCF (50 ng/ml, PeproTech, 300-07), TPO (12.5 ng/ml, PeproTech, 300-18), andFlt3-L (50 ng/ml, PeproTech, 300-19). 30,000 cells were seeded in 24-well plates and analyzed by flow cytometry either immediately (day 0) or after a 4-day incubation period at 37 °C with 5% CO2 (day 4) following 30 min antibody staining and additional 15 min Annexin V (APC) binding (Biolegend, 640920). The antibodies used were as follow: CD34-APC-Cy7 (Biolegend, 343514), CD38-FITC (Biolegend, 356610), CD90-PE-Cy5 (Biolegend, 328112), CD123-PE (Biolegend, 306006), CD45RA-PE-Cy7 (Biolegend, 202316).
For radioligand treatment, cells were treated with 50 kBq/well (500 µl/well; 200 MBq/nmol) of^ 177Lu-DOTA-TOC or ^177Lu-DOTA-JR11 for the entire incubation period of 4 days. […] Untreated cells served as controls. A total of n=16 samples were analyzed.
In this experiment, flow cytometry was conducted on a Miltenyi MACSQuant analyzer equipped with three lasers - blue (488 nm, 30 mW), red (640 nm, 20mW), and violet (405 nm, 40 mW). For each sample, 50,000 events were recorded. MACSQuantify™ Software was used for data acquisition and Flowjo 9.0-10.10 (BD Biosciences, USA) was employed for flow cytometric data analysis. […] To simplify the comparison between groups, we calculated a “proliferation score” per sample. The proliferation score was defined as the weighted sum of all proliferations using the formula: "Proliferation score = 1*(% one division) + 2*(% two divisions) + 3*(% three division) + 4*(% four division) + 5*(% five divisions) + 6*(% six division) + 7* (% > six divisions). A higher weighted sum indicated more cell proliferation events.

[4] = high-sensitivity samples (n = 8)

Q: Which “Patients with prolonged grade 4 hematotoxicity” value [1] does the source give for `C[C@@H](O)[C@@H]1NC(=O)[C@H](CCCCN)NC(=O)[C@@H](Cc2ccc(NC(N)=O)cc2)NC(=O)[C@H](Cc2ccc(NC(=O)[C@@H]3CC(=O)NC(=O)N3)cc2)NC(=O)[C@H](NC(=O)[C@H](Cc2ccc(Cl)cc2)NC(=O)CN2CCN(CC(=O)O)CCN(CC(=O)O)CCN(CC(=O)O)CC2)CSSC[C@@H](C(=O)N[C@H](Cc2ccc(O)cc2)C(N)=O)NC1=O` [^177Lu-DOTA-JR11, metal not drawn] ({DOTA}-[Phe(4-Cl)][dC][Phe(4-NH2)](Dihydroorotyl(S))[dPhe(4-NHCONH2)]KTC[dY]-NH2; disulfide 2-7 (inferred); C-terminus assumed) here?
A: 4 of 7

Q: And the “Incidence of t-MN” value [2]?
A: 5%

Q: What about the “Patients with t-MN” value [2] of the same compound?
A: 2/40

Q: And the “Cell death compared to untreated cells” value ([3]; HSPC subpopulations)?
A: highest rates of cell death

Q: What about the “Proliferation compared to untreated cells, across all subpopulations” value ([3]; n = 16, all HSPC subpopulations) of the same compound?
A: 69-79%

Q: And the “Proliferation in HSC relative to untreated, mean ± SD” value [3, 4]?
A: 42 ± 17%

Q: And the “Proliferation in HSC relative to untreated, median” value [3, 4]?
A: 44%

Source: publication PMC12160025, “Limitations of the radiotheranostic concept in neuroendocrine tumors due to lineage-dependent somatostatin receptor expression on hematopoietic stem and progenitor cells” (Theranostics, 2025)
